Patent publication US10342879B2, “Carrier nanoparticles and related compositions, methods and systems” (California Institute of Technology, priority 2008, dated 2019)

Test: Effective diameter by dynamic light scattering in double distilled water
Format: physicochemical
Details: DLS
Procedure: 3 successive runs of 1 min each were subsequently recorded and averaged. […] 10 successive automated runs at target residuals of 0.012 were then performed and results averaged (FIG. 14).

Substance: Poly(Mucic Acid-DiCys-PEG)-CPT conjugate
- share of the total particle population in the predominant distribution: 60%
